Paper doi:10.1101/2025.03.30.646247 (bioRxiv, 2025)

Target: T1, 6xHis-CIPK6 (Arabidopsis thaliana, UniProt O65554 1-441)
T1 sequence: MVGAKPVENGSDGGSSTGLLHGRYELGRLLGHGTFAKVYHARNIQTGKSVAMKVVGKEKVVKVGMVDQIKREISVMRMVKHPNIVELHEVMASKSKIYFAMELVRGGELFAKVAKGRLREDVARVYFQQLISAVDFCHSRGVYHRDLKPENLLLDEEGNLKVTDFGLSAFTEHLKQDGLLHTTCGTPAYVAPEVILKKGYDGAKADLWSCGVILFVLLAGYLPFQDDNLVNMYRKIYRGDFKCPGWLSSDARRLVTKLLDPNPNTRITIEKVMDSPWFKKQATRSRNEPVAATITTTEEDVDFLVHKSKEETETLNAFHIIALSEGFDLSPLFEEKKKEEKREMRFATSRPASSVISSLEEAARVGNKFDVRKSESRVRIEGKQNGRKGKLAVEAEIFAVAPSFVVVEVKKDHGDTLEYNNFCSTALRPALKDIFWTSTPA
Test: pull-down

B1: GST-RbohD-N (domain or fragment)
chain: MKMRRGNSSNDHELGILRGANSDTNSDTESIASDRGAFSGPLGRPKRASKKNARFADDLPKRSNSVAGGRGDDDEYVEITLDIRDDSVAVHSVQQAAGGGGHLEDPELALLTKKTLESSLNNTTSLSFFRSTSSRIKNASRELRRVFSRRPSPAVRRFDRTSSAAIHALKGLKFIATKTAAWPAVDQRFDKLSADSNGLLLSAKFWECLGMNKESKDFADQLFRALARRNNVSGDAITKEQLRIFWEQISDESFDAKLQVFFDMVDKDEDGRVTEEEVAEIISLSASANKLSNIQKQAKEYAALIMEELDPDNAGFIMIENLEMLLLQAPNQSVRMGDSRILSQMLSQKLRPAKESNPLVRWSEKIKYFILDNWQR
Q: Does B1 bind?
A: Result: binds
